The target of test [1] is BTLA overexpressed on 293T cells (human) (UniProt Q7Z6A9). Description: FACS, 293T cells overexpressing BTLA. A general note: Flow cytometry measures light scatter and fluorescence of single cells or particles in a stream.
Test [2] shares this target. As to the kind of experiment: FACS, 293T cells overexpressing BTLA; secondary antibody alone (background control).

Sequence of BTLA overexpressed on 293T cells (human) (Q7Z6A9 31-289 limits assumed): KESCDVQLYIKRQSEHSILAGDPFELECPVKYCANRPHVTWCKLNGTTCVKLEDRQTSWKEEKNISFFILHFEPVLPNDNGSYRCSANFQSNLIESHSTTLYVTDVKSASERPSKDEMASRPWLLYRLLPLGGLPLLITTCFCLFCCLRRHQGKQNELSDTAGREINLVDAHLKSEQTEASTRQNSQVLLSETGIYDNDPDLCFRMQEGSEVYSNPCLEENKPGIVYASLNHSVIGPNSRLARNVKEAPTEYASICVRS

With BTLA (MIH26) (antibody), in test [1], the % Gate is 91.3% and the MR is 2850.

On to 2′Ab only (antibody), for which, in test [2], the % Gate amounted to 10.1% and the MR amounted to 16.6.

With Isotype (antibody), in test [1], the % Gate worked out at 5.08% and the MR stood at 11.7.
